Source: patent publication US20040014658A1

Assays:
Assay in all cases: cell-based or functional assay
FGF Receptor 1 = biological target: FGF Receptor 1
FGF Receptor 2 = biological target: FGF Receptor 2
FGF Receptor 3 = biological target: FGF Receptor 3
Sequence of FGF Receptor 3 (P22607 23-806): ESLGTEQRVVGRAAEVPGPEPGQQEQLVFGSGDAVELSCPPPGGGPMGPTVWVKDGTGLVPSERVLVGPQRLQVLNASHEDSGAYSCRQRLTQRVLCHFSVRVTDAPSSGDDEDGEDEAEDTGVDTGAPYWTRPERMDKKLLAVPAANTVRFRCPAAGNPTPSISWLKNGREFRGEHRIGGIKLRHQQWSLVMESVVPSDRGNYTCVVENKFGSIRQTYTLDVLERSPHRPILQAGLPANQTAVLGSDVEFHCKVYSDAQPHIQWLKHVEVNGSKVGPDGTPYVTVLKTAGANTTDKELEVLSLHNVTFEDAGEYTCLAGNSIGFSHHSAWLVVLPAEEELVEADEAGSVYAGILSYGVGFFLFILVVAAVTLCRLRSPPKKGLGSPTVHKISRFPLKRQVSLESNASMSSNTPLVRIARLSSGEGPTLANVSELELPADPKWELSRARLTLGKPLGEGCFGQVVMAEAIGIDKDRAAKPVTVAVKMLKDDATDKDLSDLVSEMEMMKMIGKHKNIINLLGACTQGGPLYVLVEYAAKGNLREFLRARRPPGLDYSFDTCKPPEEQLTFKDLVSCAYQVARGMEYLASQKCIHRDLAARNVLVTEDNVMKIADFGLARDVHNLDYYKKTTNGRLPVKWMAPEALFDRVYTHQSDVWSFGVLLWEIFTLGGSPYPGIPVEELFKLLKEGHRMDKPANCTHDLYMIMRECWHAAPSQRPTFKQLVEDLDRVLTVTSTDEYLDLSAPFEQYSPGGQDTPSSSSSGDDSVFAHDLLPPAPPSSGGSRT

JNK activation (Western, anti-active JNK), lowest active concentration (FGF Receptor 1): < 12.5 ng/mL
JNK activation (Western, anti-active JNK), lowest active concentration (FGF Receptor 2): < 12.5 ng/mL
JNK activation (Western, anti-active JNK), lowest active concentration (FGF Receptor 3): < 12.5 ng/mL
Substance: wild type FGF-9 (ligand)
